This is an account of results in the DeepSol protein solubility set.

A short description of the series: soluble on expression in E. coli; label from the status in PepcDB or PDB records.
Consider “MKKTQLGRSFSKSFKQKKARASNASSDPFRFQNNGISYKGKLIGEQDVDKARGDAMCAEAMRTAKSIIKAAGAHKTRITLQINIDGIKVLDEKSGAVLHNFPVSRISFIARDSSDARAFGLVYGEPGGKYKFYGIKTAQAADQAVLAIRDMFQVVFEMKKKQIEQVKQQQIQDGGAEISSKKEGGVAVADLLDLESELQQIERGVQQLSTVPTNCDAFGASPFGDPFVDSFNSTATSNGTANMSGTQVPFGGLQLPQVQQMQMPMVQIPQQSHQNWPTSGAGSFDAWGQQQQQQQMHHAHSTPAFGTNGFSDTNPFASAFNTQARPPPLPTVAPTQYRDPFSVHSSAIPNSNIDWTGTGTTKENMAPSTNIQQQQSSLHHASTFANFGDNKAETWSEKKVTSLEEAFTKLVDMDALVGGQGIKETKKNPFEHILNPPKASLNSMSTTCSAAQMAATQQHTTSSHADPFGDDFFR”, for which the “soluble on expression in E. coli” value is on record as “not soluble”. The value for “MGSSHHHHHHGGTGENLYFQGGSGSFRYTNHLVATLKHRLFLEAAHRQLVRQTFTGVCNGIEVTCTAYGSVVGIRMLDRAVWEPHYQVAADNKSEAAAATPTAPAAASPSRPSSSSSSSSTASGKTGIDLVKLSASIQAATWQAIQKVRAAKEETHSRSLRRNPQVLAEARLRDWYEQDANTLHPRPFDGLKNLEATEWMQAVRFGVPQPARYRRPNAAPKDLGEGGDGAHTDQKPRETITVLRDEDCDPANIPIGSVHPLFAPGLLQLEVDPNVATNGGSRVDEFFVLSEQRKEMRRDEEAFWERVELIRRSQLATIPKGGVKRGYADMADTVQDSIEEKVQLRFTQ” was “soluble”; that for “MAGYGAKGIRKVGAFRSGLEDKVSKQLESKGIKFEYEEWKVPYVIPASNHTYTPDFLLPNGIFVETAGLWESDDRKKHLLIREQHPELDIRIVFSSSRTKLYKGSPTSYGEFCEKHGIKFADKLIPAEWIKEPKKEVPFDRLKRKGGKK” was “soluble”. The value for “MPHFYEYLEFNRDEDREHQLDVYVGVQLEADTIAKITALETASEWLIMAEPYCPDCVEVVAYFQRISQLNPAINVKYVARKDNTQRHYFDSDRQQQAVIAVEKIPAIFNISSAETELVLAEFPAFLKAEMAEHPMQFDALKADFRMGKFGKRLEAELVEILTR” was “not soluble”; that for “MQSTIRKQLLQVFSEADGEFVSGQTISDKLGCSRTAVWKHMEDLRNEGYELEAVRRLGYRIASKPDKVTANEIQLGLQTKHIGRTVYFEESVESTQHIAAKLAYEGAEEGTIVVAEEQTAGRGRLSRKWHSPKGTGIWMSIILRPSIPVHHAPQLTLLAAVSVAQAIEKCTGVNVGIKWPNDILIQGKKAVGILTEMQADPDKINAVIMGIGINANQKQEHFDEEIQHIATSLAIESGKPIVRAELMQQIFLQLEKLYEEYLQNGFSVIKILWESYAVSIGKEINARTMRETITGVAKGITEDGVLLLEDHEGKVHHIHSADIEIK” was “not soluble”. For the sequence “MGSDKIHHHHHHMAFFGYKDIDKLSGVDLAIYRFIVEHDEQIPYMRVRELARGAHVSNSSVMRFIRKIGYDSFPEFKVSLRSETPIQKPDAPGIQFVQPSAFPADITKIIRLAAQLMVNADNIVFVGIGASAALGEYASRQTSSLGFNSYVVKDPFYPLLPQLRNTSNNVLVAVSVSGQTSELVEMLNDFVNNPEVNIISITSNLESTIARMSRYALTYRATEERIHQYYDLTSQVPCLYIIEALLRELRHQEVVQHRFE”, the “soluble on expression in E. coli” value is given as “not soluble”. Under “MVKFIESELILLKKEVDEMWTLVYNQLDRAGEAVMTLDKELAQQVMVRERRVNAFELKIDSDIEDIIALYNPVAIDLRFVLAMLKINTNLERLGDFAEGIARFVIRCKEPVLDADLLARLRLGEMQAEVLSMLELAKRALNEENIEMATAVFGKDNLLDDINAEATGILADYIREHPETAHTCVDLVGVFRKLERSGDHITNIAEEIVFFIDAKVLKHSGKVDENYPKS” stands “not soluble”; under “MGHHHHHHSHNDGRIMGFVSRSQERRLLKKTMSGTFLLRFSESSEGGITCSWVEHQDDDKVLIYSVQPYTKEVLQSLPLTEIIRHYQLLTEENIPENPLRFLYPRIPRDEAFGCYYQEKVNLQERRKYLKHRLIVVSNRQVDELQQPLELKPEPELESLELELGLVPEPELSLDLEPLLKAGLDLGPELESVLESTLEPVIEPTLCMVS”, “soluble”.

On to “MRPIEEFVYVGNQVIVPDQASLMRCYYPIIGGEGYALYQYFVAFYDNGNHRHKFATILNHLNFGMQPLQESLAVLTAVDLLAFYHSPQGIYVVELKSPLSIEQFLKHAVYSSLLEQKIGEPAVDALKPTSLHGLQDLSKRFSDVFTDERLAQKSVSEIKPKNSFDLISFRNRMQADGLVFTDEKTDVPEIYKLSETYDMNWYDTYLLSKKTAVNHRIIVKRMQVQLEQAQAQKLGGDSALTETEKKILKAVKSGKPVDYLQSAKGPGGTVTNSEKKILTDLAQRGFMDEVINLMVAYSLGRTRSTNVNREYISKVANDFDFKKIVTAEQGLLALRSGYDKKSQRAKDDSKKKTNVPSWSDPDYDNQTNQADQAKLDEIRRRALAKLEKGKE”, for which the “soluble on expression in E. coli” value is listed as “soluble”. The value for “MGSDKIHHHHHHVKKSESLPVLIVTGLSGAGKSTVLNVFEDLRFFTIDGLPVGVVADLLEHLARDAMGRYRGVVLGMDLRQFDFLDEFEGALMRLEKMGVSPRIIYLEADSDTLVRRFATTRRPHPLEGGDLGLEAAVEHERNLLAPVRERADLILDTSEFSIHDLRRIVQKKWSSLGGSLRSLRVNLITFGFKYGVPSDADMVFDLRFLPNPYFDAKLKALSGKDPEIQQFVLGCEQGKTFFKRFLDFLLFLLPQYEAEGRYRITLAIGCTGGRHRSVSTAEALRDALKKSDYAVSLEHRHIDLG” was “not soluble”. The value for “SAEGSRGGPTCSGVGGRQDPVSGSGGCNFPEYELPELNTRAFHVGAFGELWRGRLRGAGDLSLREPPASALPGSQAADSDREDAAVARDLDCSLEAAAELRAVCGLDKLKCLEDGEDPEVIPENTDLVTLGVRKRFLEHREETITIDRACRQETFVYEMESHAIGKKPENSADMIEEGELILSVNILYPVIFHKHKEHKPYQTMLVLGSQKLTQLRDSIRCVSDLQIGGEFSNTPDQAPEHISKDLYKSAFFF” was “soluble”. With “MMGSAYWEKLVPQINPPKVPSAVEGLGIPASVVENLVLKHLAAYPKCDLVELTQRLCVVSNIVELALAQLRKRSWVEVYQPASDKLSHSYSNVRYSLTEFGLAEADIAYRKDPYIGPVPVSLEDYWTVVEGQDLRKNPIMRADVERALSDVFGSEHLIPVLGPAINSGRAMLLYGHAGTGKSYVAAR”, the “soluble on expression in E. coli” value is reported as “not soluble”. Under “RRRAKGLRREEVAQLAGISATWLTWLEQGRSESVSAQTLSRLAAALQLSGAETDYLFDLAGLKNPQEKRADANPQAREILEEMLPRIDMPAYVLDRLWRAVAWNRAAEELFC” stands “not soluble”; under “MGSDKIHHHHHHVTSEIKRGVSLYSYQNETFQGKMTLEDCIRTSAELGAKGIEIIGEQTFWGWPECGVAQADVDTWHRLIKQYDCTPVSHDFMLDYKRYKGREMPFDEQVASVKNDVDFGARLGMKYIRALVSIAPEVLVAAAPYAEEKGIKILIEVHAPLHFDHPWIIRHAEAFEKSGSDALGFLPDMGMFLFAFPPVWKEKFLRIGVPKNIADYVEKAYEDRVLSEYVILNVQQMGGTGPAIAMAETLRHNAAFEPRRMLDYMHRIHNVHGKFYQMNEDYVEPSIPYDEIVKVLKQGGFNGYICSEYEGNRWIEDAEEPDSVEQVRRQQVMLARLLGETEVPTIQTSPTASAMAEAAA”, “not soluble”. The value for “AHHHHHHASAKWVCKICGYIYDEDAGDPDNGISPGTKFEELPDDWVCPICGAPKSEFEKLEDGSIEIRTHTALHVLKGAVVKVLGEGAKWTASVYVNGNHGRLTVKFNRKPTHEEIREIERLANEKIKENVPIQIYELSREEAEKIFGDEMYDLFPVPEHVRTLKVVVIEDWNVNACNKEHTKTTGEIGEIKIRKVRFRKSKELLEISFDVL” was “soluble”; that for “MAHHHHHHMSRHPLSRHINTSSVKLKIVKCKLFDIGEGISEVEITQWNKNEGDNVSEMETLLTVQSDKAAVDITSKYSGVLVKRYAEEKDVIKIGSYFCEIDTEDEVGEAAEEVVANEVADEADGRVDPGGPLSPAKVTQQGSKAPTVKASPGVKKKAQEYKLDVDAIGSYFSKEAITMLDVELYHQKVKSGEISNAGSDFNGEVLEEVPLKGIKLAMCKCMNDSLSIPLFHLNEKYNVQNLLSARNVIKKSVLQKDNVNVTLTSVLIKLISTVLKDFPLLNSKFDSQKNAYTIFKSHNVCVAMDTPNGLLVPNIKQVESKNVVEIQKELTSLRDKALQMKLSKSDISGGTITVSNFGVIGGTFATPIVFENQACIIGLSKIQKQLLLKNEKKELTALSDILVADVMNLTFGADHRFVDGATLAQFSKKLKEVVEGVTSLDPYAA” was “not soluble”; that for “MLKKILLSLVVFYQRFISPLTPPTCRFYPTCSQYTREAIEYHGALKGLYLGVRRILKCHPLHKGGFDPVPLKKDKNSKTTHHHLEHHHHHH” was “not soluble”.

For “MGSDKIHHHHHHMAQMTSQTLYQALWNSADILRSKMDASEYKNYLLGLIFYKYLSDRMVVYASDQLEEKTTDLDKAQQIYTDAYNDKDLHDDLISNVSDEFGYHIQPDLTFTALIDKIDHGTFQLEDLSQSFRDIEQSSEFFSGLFEDVDLYSRKLGATPQKQNQVISDVMKQISTLDLVGQNTNDILGDAYEYLIGQFASDSGKNAGEFYTPQSVSRLITQIAMHGKEDVRGFTIYDPTMGSGSLLLNARRYSNERLSINYFGQELNTSTYNLARMNMILHGVPINNQHLHNADTLDQDWPIEEPTNFDAVVMNPPYSAHWQPSKGTENDPRFVSYGLAPKSKADFAFLLHGYYHLKDTGVMCIVLPHGVLFRGGAEGRIRKALLENGAIDTVIGLPANIFFNTSIPTTVTVLKKSRTTRDVLFIDASKEFEKAKNQNHLTDDNIQKILETCINRKDVDKYAHLASFDEIKENDFNLNIPRYVDTTEPEKPVDVVKVVADIKKNDEEIARLSSELAKNFDDLVANNDEAAKQLTALKELFKNE”, the “soluble on expression in E. coli” value is reported as “not soluble”. The value for “SLRLTQGLFRFPLAGLLCLSTAAFAESQLSVRVTPANAALKANIEAYVGSLGERDEAALQRFRRNAEAQAEKAAQALGYFQAQIDSEVKDGKPPKLTLKVVPGEPVRLRQVNIQVLGEAASLESFRLPSGKQLKPGAKLNQGVYEDAKRLIQNQASRYGFFQGRFSTQRLSIDPRAGIADIDLVYDSGQRYTFGKVSFDGDSIIEEELLRRMVPFKAGQPYDSELIAELNQNLQSSGYFEGVRVDAAPTQAQADGARQAIPVAVRLEARKPRTMGVGLGFSTDVGARARFNWTRHWVNAEGHSLGFESEISAPRQNVGAWYEIPLDPPLTDKLRFTSGYQFEDLVDTESKLLTLGGEWHSKRPDGWQRVVSLNWMREEYKLGDDSGLSSFLMPGIGYSLLETDNKVDPSHGYRLQFNVKGAKEGLLADADVLHVDAMAKGLTSFAGGHRLLGRLQVGGIATNDYKSIPPSLRFFAGGDQSVRGYDYRTLSPENSDGDKIGGRYMIAGSVEYQYPLAERWRLATFVDQGNAFNSLDFPSIKTGVGFGVRWVSPVGPLRLDLAHALDDDGGFRLHFSMGPEL” was “soluble”; that for “NTPYLRPEMFPELAILQQNWQVIRDEGLHLQQLEQIKAADKYNDAGFNSFFKTGWKRFYLKWYEDAHPSASQLCPQTTALLRDIPSVKAAMFATLPDGSRLPRHRDPYAGSLRFHLGLATPNDDRCFIEVDGQRYSWRDGEGVLFDETYIHYAENTSGENRLILFCDIERPMRYRWAQKVNHWLGRHLMSAASAPN” was “not soluble”.
